This assay deals with FGFR3. The assay can be described thus: cell-based or functional assay.

Consider “FGF4^Δ54N165R (from UniProt P08620 55-206) (ligand)”, for which the concentration at which FDCP-FGFR3 cells proliferate (XTT) was more than 0.1 ng/mL.

In turn, “FGF4^Δ78 (from UniProt P08620 79-206) (ligand)” gave a concentration inducing a growth response of FDCP-FGFR3 cells (XTT) of more than 25 ng/mL.

The values above are taken from US20110053841A1.
